T1: human ABCC4 (Homo sapiens, UniProt O15439)
T1 construct: expressed in transfected cells
T1 sequence (O15439 1-1325): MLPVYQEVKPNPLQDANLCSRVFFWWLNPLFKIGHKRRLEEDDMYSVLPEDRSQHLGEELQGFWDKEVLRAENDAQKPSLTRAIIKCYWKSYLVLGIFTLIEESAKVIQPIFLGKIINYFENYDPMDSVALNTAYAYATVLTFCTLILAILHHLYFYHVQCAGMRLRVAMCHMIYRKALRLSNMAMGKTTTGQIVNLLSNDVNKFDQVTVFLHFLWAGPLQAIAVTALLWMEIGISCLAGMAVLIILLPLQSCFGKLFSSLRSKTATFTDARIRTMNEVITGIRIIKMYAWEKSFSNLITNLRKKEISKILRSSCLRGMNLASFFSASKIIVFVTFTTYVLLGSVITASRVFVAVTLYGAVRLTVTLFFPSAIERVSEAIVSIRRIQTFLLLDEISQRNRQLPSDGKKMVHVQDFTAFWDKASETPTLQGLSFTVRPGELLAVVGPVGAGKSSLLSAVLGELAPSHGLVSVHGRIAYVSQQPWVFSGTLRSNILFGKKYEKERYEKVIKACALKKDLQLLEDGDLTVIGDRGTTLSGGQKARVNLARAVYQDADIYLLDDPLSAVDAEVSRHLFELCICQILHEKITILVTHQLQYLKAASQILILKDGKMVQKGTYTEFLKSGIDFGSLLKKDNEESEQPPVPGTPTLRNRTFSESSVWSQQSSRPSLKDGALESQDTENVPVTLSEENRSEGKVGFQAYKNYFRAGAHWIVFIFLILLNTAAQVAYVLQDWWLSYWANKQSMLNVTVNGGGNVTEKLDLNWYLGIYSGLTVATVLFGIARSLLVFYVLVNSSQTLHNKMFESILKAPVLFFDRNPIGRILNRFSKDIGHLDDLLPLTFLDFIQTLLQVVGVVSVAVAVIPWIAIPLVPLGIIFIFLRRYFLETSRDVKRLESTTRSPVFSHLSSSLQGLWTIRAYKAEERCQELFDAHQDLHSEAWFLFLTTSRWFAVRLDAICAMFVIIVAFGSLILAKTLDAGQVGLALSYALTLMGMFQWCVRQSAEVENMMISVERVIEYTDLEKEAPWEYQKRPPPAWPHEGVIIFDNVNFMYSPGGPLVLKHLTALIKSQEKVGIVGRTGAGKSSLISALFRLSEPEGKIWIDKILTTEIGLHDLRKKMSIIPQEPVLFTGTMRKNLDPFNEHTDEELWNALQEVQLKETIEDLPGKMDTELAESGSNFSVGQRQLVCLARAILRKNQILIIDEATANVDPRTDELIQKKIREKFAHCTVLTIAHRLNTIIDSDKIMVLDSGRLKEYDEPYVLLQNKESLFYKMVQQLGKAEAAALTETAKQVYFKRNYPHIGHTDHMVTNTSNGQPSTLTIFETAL


Experiments:
cynomolgus ABCC4 = assay: Flow cytometry (FACS) binding to C6 cells stably transfected to express cynomolgus ABCC4 (different experiment, different C6.cC4 cell line, Table 4); design: key to Cynomolgus ABCC4 binding: Negative (−)=Rmax (MFI) below background level; Positive (+)=MFI>3× background level; conditions: for binding to cynomolgus ABCC4 expressed on cell surface: Table 4 study, stated in words; for Cynomolgus ABCC4 binding: different C6.cC4 cell line, C6 cells stably transfected to express cynomolgus ABCC4, FACS, Table 4
Experimental: (§1) Binding titration of recombinant antibodies to ABCC4 transfectants was performed by serial dilution of antibodies from about 666 nM. Diluted antibody in flow cytometry buffer was incubated with cells on ice for 30 min. After 2 washes with flow cytometry buffer, bound antibody was detected with PE-labeled F(ab′)2 fragment goat anti-human IgG (Jackson ImmunoResearch) diluted 1:200 in flow cytometry buffer and incubated with cells for 20 min on ice. After 2 washes with flow cytometry buffer fluorescence was measured on an Attune N×T flow cytometer. Data were analyzed with GraphPad Prism 8.0 software to determine EC50's.
(§2) Human embryonic kidney HEK 293T cells and murine C6 (ATCC CCL-107) were transfected with human or cynomolgus ABCC4 cDNA with C-terminal fused FLAG tag in a pMONO-hygro vector with Lipofectamine 3000 (Invitrogen #L3000001). The cells were treated with 0.2 mg/ml and 0.5 mg/ml hygromycin respectively for about 2 weeks while cultivated in DMEM and 10% FBS with 0.2 mg/ml hygromycin and 0.5 mg/ml hygromycin, respectively. The cells were washed with PBS, and stained with […] of anti-FLAG-PE after fixing and permeablization. Clones expressing ABCC4 were single-cell sorted into 200 μl DMEM with 10% FBS using a BD Aria FACS machine and cultivated in 96 well plates using standard techniques in an incubator at 37° C. and 5% CO 2. Two weeks later clones expressing high levels of ABCC4 were screened and amplified.
(§3) Antibody binding to cells was evaluated by flow cytometry. Murine C6 cells stably transfected to express human or cynomolgus ABCC4 were washed once in flow cytometry buffer (PBS+2% FBS+0.02% sodium azide), resuspended at 2×10^6 cells/mL in flow cytometry buffer, and dispensed into 96-well microtiter plates at 0.1 mL/well. Recombinant antibodies were added to cells at 5 ug/mL for initial binding confirmation, or serially diluted from 100 ug/mL in flow cytometry buffer. After incubating cells on ice for 30 min, cells were washed twice with flow cytometry buffer. Bound antibody was detected with PE-labeled F(ab′)2 fragment goat anti-human IgG (Jackson ImmunoResearch) and evaluated on an Attune N×T flow cytometer. EC50 is calculated to be the concentration of antibody that gives half maximal response.
(§4) In a different experiment, using a different C6.cC4 cell line, detecting the binding of anti-ABCC4 antibodies to C6 cells stably transfected to express human ABCC4 measured by FACS and to C6 cells stably transfected to express cynomolgus ABCC4 measured by FACS, the results set forth in Table 4 were obtained. Negative (−)=Rmax (MFI) below background level. Positive (+)=MFI>3× background level.

human ABCC4 = target: T1, human ABCC4; assay: Flow cytometry (FACS) binding to C6 cells stably transfected to express human ABCC4 (different experiment, Table 4); conditions: for Human ABCC4 binding: C6 cells stably transfected to express human ABCC4, FACS, different experiment, Table 4; for binding to human ABCC4 expressed on cell surface: Table 4 study, stated in words
Experimental: as §1, §2, §3, §4

Molecule	binding to cynomolgus ABCC4 expressed on cell surface (cynomolgus ABCC4)	Cynomolgus ABCC4 binding (cynomolgus ABCC4)	Human ABCC4 binding (human ABCC4)	binding to human ABCC4 expressed on cell surface (human ABCC4)
C4.957: anti-ABCC4 antibody raised in rats; VH SEQ ID NO: 8, VL SEQ ID NO: 127 (antibody, V domains shown) VH: EVQLKESGPGLVQPSQTLSLTCTVSGFSLTNYGVSWVRQPPGKGLEWIGAIWSGGSTGYNSALKSRLSISRDTSKSQVLLKMNSLQTEDTAMYFCARSGVEGPPFDYWGQGASVTVSS VL: AIQVTQSPTSLSASLGDRVTLTCRASQDINNKMAWYQQKPGEVPQLLIYYASTLQSGTPSRFSGSGSGTDFSFTISHLQSEDFATYYCLQGYSLYTFGAGTKLELK	bind to both human and cynomolgus ABCC4	+ (Positive (+)=MFI>3× background level)	+ (Positive (+)=MFI>3× background level)	bind to both human and cynomolgus ABCC4
C4.956: anti-ABCC4 antibody raised in rats; VH SEQ ID NO: 7, VL SEQ ID NO: 127 (antibody, V domains shown) VH: QLKESGPGLVKPSQSLSLTCSVTGYTITSGYDWTWLRKFPGNKMEWMGYISYSGFTNYNPSLRSRISITRDTSKNQFFLQLNSVTAEDTATYFCTRTRGYNPFPYWGQGTLVTVSS VL: AIQVTQSPTSLSASLGDRVTLTCRASQDINNKMAWYQQKPGEVPQLLIYYASTLQSGTPSRFSGSGSGTDFSFTISHLQSEDFATYYCLQGYSLYTFGAGTKLELK		−	+ (Positive (+)=MFI>3× background level)	
C4.970: anti-ABCC4 antibody raised in rats; VH SEQ ID NO: 10, VL SEQ ID NO: 131 (antibody, V domains shown) VH: EVQLVESGPGLVQPSQTLSLTCTVAGFSLTSYNVHWVRQPPGKGLEWMGVIWNTGDTRYDSALKSRLSISKDTSKSQVFLNMNSLQTEDTATYYCARDDNVYYGMHAMDAWGQGASVTVSS VL: DIKMIQSPSSLSASLGERVTISCRASENINNYLSWYQKKEDGSVKLLIYHTSRLQPGAPSRFSGSGSGKDYSLTISGLDSEDIATYYCQQGYTPPTFGAGTKLELK		−	+ (Positive (+)=MFI>3× background level)	
C4.1143: anti-ABCC4 antibody raised in rats; VH SEQ ID NO: 31, VL SEQ ID NO: 148 (antibody, V domains shown) VH: EVQLVESDGGLLQPGRSLKLSCAASGFTFSDFYMAWVRQAPTKGLEWIATISHDGRNTYYRDSVKGRFTISRDNAKRTLYLEMDSLRSEDTATYYCATLTTRYKGVMEAWGQGASVTVSS VL: DVVMTQSPSHLAASPGESVSINCKASKNIYKYLAWYQQKPGKTNKLLIYSGSTLQSGTPSRFSGSGSGSDFTLTIRNLEPEDFGLYYCQHHNEYPPTFGGGTKLEIK	bind to both human and cynomolgus ABCC4	+ (Positive (+)=MFI>3× background level)	+ (Positive (+)=MFI>3× background level)	bind to both human and cynomolgus ABCC4
C4.1073: anti-ABCC4 antibody raised in rats; VH SEQ ID NO: 24, VL SEQ ID NO: 146 (antibody, V domains shown) VH: EVQMKESGPGLVQPSQTLSLTCTVSGFSLTSYHVHWVRQPPGKGLEWMGVMWSDGDTSYNSALKSRLSINRDTSQSRVFLKMNSLQTEDTSTYYCARDRDVLYYDGDFSPFVMDAWGQGASVTVSS VL: DIQMTQSPSNLAASPGESVSINCKASKSISKFLAWYQQKSGKANKLLIYSASTLQSGTPSRFSGSGSGTDFTLTIRNLEPEDFGLYYCQQHNEYPLTFGSGTKLEIK	bind to both human and cynomolgus ABCC4	+ (Positive (+)=MFI>3× background level)	+ (Positive (+)=MFI>3× background level)	bind to both human and cynomolgus ABCC4
C4.1075: anti-ABCC4 antibody raised in rats; VH SEQ ID NO: 25, VL SEQ ID NO: 141 (antibody, V domains shown) VH: EVQLKESGPGLVQPSQTLSLTCTVSGLSLISSNINWVRQPPGKGLEWIGAISSGGSAFYNSALKSRLTSSRDTSKSQVFLKMNSLQTEDTAIYFCARGGSEDPDYFDYWGQGVMVTVSS VL: DIVMTQSPSSLAVSAGETVTINCKSSQSLLYSGNQKNYLAWYQQKPGQSPKLLIYWSSTRQSGVPDRFMGSGSGTDFTLTISSVQAEDLAIYYCQQYYDTPLTFGSGTKLEIK	bind to both human and cynomolgus ABCC4	+ (Positive (+)=MFI>3× background level)	+ (Positive (+)=MFI>3× background level)	bind to both human and cynomolgus ABCC4
C4.1069: anti-ABCC4 antibody raised in rats; VH SEQ ID NO: 22, VL SEQ ID NO: 144 (antibody, V domains shown) VH: GLVQPSQTLSLTCTVSGFSLNSNGVSWVRQPPGKGLEWIVEISSGGSAFYNSALKSRLSISRDTSKSQVFLKMNSLQTEDTAIYFCTRGGTEDPDYFDYWGQGASVTVSS VL: DIVLTQSPSSLAVSAGETVTINCKSSQSLLYSGNQKNYLAWYQQTPGQSPKLLIYWASTRQSGVPDRFIGSGSGTDFILTITSVQAEDLAIYYCQQYYDTPVTFGSGTKLELK	bind to both human and cynomolgus ABCC4	+ (Positive (+)=MFI>3× background level)	+ (Positive (+)=MFI>3× background level)	bind to both human and cynomolgus ABCC4
C4.1164: anti-ABCC4 antibody raised in rats; VH SEQ ID NO: 36, VL SEQ ID NO: 153 (antibody, V domains shown) VH: EVQLVESDGGLVQPGRSLKLSCAASGFTFSDYYMAWVRQAPTKGLYWVASISYDGSTTYYRDSVKGRFTISRDNAKSTLYLQMGSLRSEDTATYYCARLSIRYKGVMDAWGRGASVTVS VL: DIQMTQSPSNLAASPGESVSINCKASETIYKYLAWYQQKPGRTNKLLIYSGSTLQSGTPSRFSGSGSGTDFTLTIRNLEPEDFGRYYCQHHVEYPPTFGAGTKLELK	bind to both human and cynomolgus ABCC4	+ (Positive (+)=MFI>3× background level)	+ (Positive (+)=MFI>3× background level)	bind to both human and cynomolgus ABCC4
